Molecular target: CTD (C-terminal domain) of SOQ1 (SUPPRESSOR OF QUENCHING1), recombinant (Arabidopsis thaliana)
Test: MST

Kd: 8.76 µM
Substance: Trx-like domain of SOQ1 (SUPPRESSOR OF QUENCHING1), recombinant (domain or fragment)
